In this data set the target is T1, SoxR (MerR-type HTH transcriptional regulator) (Acinetobacter baumannii AYE) (UniProt C7FFS1).
T1 sequence: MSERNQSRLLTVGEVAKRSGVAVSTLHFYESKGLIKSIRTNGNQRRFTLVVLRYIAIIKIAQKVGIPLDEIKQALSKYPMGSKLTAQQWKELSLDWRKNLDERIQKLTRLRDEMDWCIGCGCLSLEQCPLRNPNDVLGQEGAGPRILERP
The experiment in a line: EMSA. Conditions: not stated (gel shift as described previously, 20).

Regarding “GGCTGCTCGGTATGATGTCGTTAATTAACAGAAGTAAATGCCGCTTCGAGATTTTGTGATGATCAACGAGCGGTATAAAAAAGACAAGTAGAATTAAACAATAAATGTAATTAAGACAAAAACAAAGCGTGATTGAATATTTCCAACAAACCAATAAAAAACCAGTTAACGAGTGTCACTTAAAATTCATGAATTCTTCATGATCATGTCAAACAAAGCA (double strand) [abeD promoter fragment]”, the binding result was “binds”.

The values are drawn from paper PMC4619830.
